The record followed here is PMC9520026, “Densely methylated DNA traps Methyl-CpG–binding domain protein 2 but permits free diffusion by Methyl-CpG–binding domain protein 3”.

Usually Kd stands for a measure of binding affinity in units of concentration.

In series [1] the target is T1, MBD3sc (human, UniProt O95983 1-249+Q86YP4:137-178, internal_change). The experiment in a line: fluorescence anisotropy; FA: 50 mM Hepes pH 7.5, 100 mM NaCl, 1 mM MgCl2, 10 nM DNA, temperature not stated; SPR: 50 mM Hepes pH 7.5, 150 mM NaCl, 1 mM MgCl2, 1 mM TCEP, 0.05% Tween-20; NMR: 10 mM NaPO4 pH 6.5, 150 mM NaCl, 1 mM DTT, 10% 2H2O, 25 C. The conditions noted are these: protein: recombinant; tags: N-terminal thioredoxin-His6-TEV site (removal stated only for NMR); label: 5' 6-FAM on strand 1; blunt.

Series [2] concerns the target T2, MBD2sc (human, UniProt Q9UBB5 150-393+Q86YP4:137-178, internal_change). Described as above. The conditions noted are these: protein: recombinant; tags: N-terminal thioredoxin-His6-TEV site (removal stated only for NMR); label: 5' 6-FAM on strand 1; blunt.
Series [3] deals with T3, MBD2sc (2H,15N, tag cleaved) (human, UniProt Q9UBB5 150-393+Q86YP4:137-178, internal_change). As to the kind of experiment: NMR; FA: 50 mM Hepes pH 7.5, 100 mM NaCl, 1 mM MgCl2, 10 nM DNA, temperature not stated; SPR: 50 mM Hepes pH 7.5, 150 mM NaCl, 1 mM MgCl2, 1 mM TCEP, 0.05% Tween-20; NMR: 10 mM NaPO4 pH 6.5, 150 mM NaCl, 1 mM DTT, 10% 2H2O, 25 C. To be noted: protein: recombinant; tags: none (thioredoxin-His6 removed by TEV); blunt.

The target in series [4] is T3, MBD2sc (2H,15N, tag cleaved). The experiment in a line: NMR; fast exchange between both sites; FA: 50 mM Hepes pH 7.5, 100 mM NaCl, 1 mM MgCl2, 10 nM DNA, temperature not stated; SPR: 50 mM Hepes pH 7.5, 150 mM NaCl, 1 mM MgCl2, 1 mM TCEP, 0.05% Tween-20; NMR: 10 mM NaPO4 pH 6.5, 150 mM NaCl, 1 mM DTT, 10% 2H2O, 25 C. The conditions noted are these: protein: recombinant; tags: none (thioredoxin-His6 removed by TEV); blunt.

The target of series [5] is T1, MBD3sc. As to the kind of experiment: SPR; FA: 50 mM Hepes pH 7.5, 100 mM NaCl, 1 mM MgCl2, 10 nM DNA, temperature not stated; SPR: 50 mM Hepes pH 7.5, 150 mM NaCl, 1 mM MgCl2, 1 mM TCEP, 0.05% Tween-20; NMR: 10 mM NaPO4 pH 6.5, 150 mM NaCl, 1 mM DTT, 10% 2H2O, 25 C. The conditions noted are these: protein: recombinant; tags: N-terminal thioredoxin-His6-TEV site (removal stated only for NMR); blunt. (Surface plasmon resonance follows binding to a sensor surface in real time, without labels.)

Series [6] addresses T2, MBD2sc. The description is as above. To be noted: protein: recombinant; tags: N-terminal thioredoxin-His6-TEV site (removal stated only for NMR); blunt.

T2 sequence (Q9UBB5 other isoform, or with tags, fused parts or gaps): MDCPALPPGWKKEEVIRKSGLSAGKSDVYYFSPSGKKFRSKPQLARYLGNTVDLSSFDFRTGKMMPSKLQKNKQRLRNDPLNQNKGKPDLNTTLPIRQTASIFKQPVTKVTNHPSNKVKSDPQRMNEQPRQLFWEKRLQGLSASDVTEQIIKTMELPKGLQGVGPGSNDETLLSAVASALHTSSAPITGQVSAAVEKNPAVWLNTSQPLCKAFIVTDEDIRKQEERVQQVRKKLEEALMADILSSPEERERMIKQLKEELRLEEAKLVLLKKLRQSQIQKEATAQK
T3 sequence (Q9UBB5 other isoform, or with tags, fused parts or gaps): as above
T1 sequence (O95983 other isoform, or with tags, fused parts or gaps): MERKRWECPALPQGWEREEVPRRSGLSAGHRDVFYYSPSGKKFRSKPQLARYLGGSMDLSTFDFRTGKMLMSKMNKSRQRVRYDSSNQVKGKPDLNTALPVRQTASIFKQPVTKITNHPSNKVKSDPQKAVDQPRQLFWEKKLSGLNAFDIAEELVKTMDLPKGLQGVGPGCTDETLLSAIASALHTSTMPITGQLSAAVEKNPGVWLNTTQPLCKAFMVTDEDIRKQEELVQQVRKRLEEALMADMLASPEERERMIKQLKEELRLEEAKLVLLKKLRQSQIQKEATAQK

B1: 17 bp CpG FAM (unmethylated) (dsDNA)
DNA 1: CTGCCGCCGAGCGCCTC
DNA 2: GAGGCGCTCGGCGGCAG
B1: the Kd with MBD3sc [1] worked out at 8100 ± 400 nM; with MBD2sc [2], 2800 ± 100 nM.

B2: 38 bp, first CpG methylated (dsDNA)
DNA 1: GGAGGCGCTCGGCGGCAGCCTGGAACGGAATTCTTCTA
DNA 2: TAGAAGAATTCCGTTCCAGGCTGCCGCCGAGCGCCTCC
modifications: 5-methylcytosine at C10 of strand 1 and C28 of strand 2
In the case of B2, the binding result in series [3] is given as “binds”.

B3: 38 bp, second CpG methylated (dsDNA)
DNA 1: GGAGGCGCTCGGCGGCAGCCTGGAACGGAATTCTTCTA
DNA 2: TAGAAGAATTCCGTTCCAGGCTGCCGCCGAGCGCCTCC
modifications: 5-methylcytosine at C26 of strand 1 and C12 of strand 2
B3: the binding result in series [3] was “binds”.

B4: 38 bp, both CpG methylated (dsDNA)
DNA 1: GGAGGCGCTCGGCGGCAGCCTGGAACGGAATTCTTCTA
DNA 2: TAGAAGAATTCCGTTCCAGGCTGCCGCCGAGCGCCTCC
modifications: 5-methylcytosine at C10, C26 of strand 1 and C12, C28 of strand 2
Take B4: the binding result in series [4] is reported as “binds”.

B5: 17 bp CpG biotin (SPR) (dsDNA)
DNA 1: CTGCCGCCGAGCGCCTC
DNA 2: GAGGCGCTCGGCGGCAG
For B5, the dissociation constant (Kd) with MBD3sc [5] turned out to be 1020 ± 10 nM; with MBD2sc [6], 1240 ± 80 nM.

B6: 17 bp CpG-free FAM (dsDNA)
DNA 1: CTGGCCCCAGGGCCCTC
DNA 2: GAGGGCCCTGGGGCCAG
As for B6, the results for the Kd in the series with MBD3sc [1] and in the series with MBD2sc [2] were 14200 ± 300 nM and 9100 ± 400 nM, respectively.

B7: 17 bp mCpG FAM (dsDNA)
DNA 1: CTGCCGCCGAGCGCCTC
DNA 2: GAGGCGCTCGGCGGCAG
modifications: 5-methylcytosine at C8 of strand 1 and C9 of strand 2 (symmetric)
For B7, the values for the Kd with MBD3sc [1] and with MBD2sc [2] were 5900 ± 400 nM and 7 ± 2 nM, respectively.

B8: 17 bp mCpG biotin (SPR) (dsDNA)
DNA 1: CTGCCGCCGAGCGCCTC
DNA 2: GAGGCGCTCGGCGGCAG
modifications: 5-methylcytosine at C8 of strand 1 and C9 of strand 2
On to B8, for which the values for the Kd in the series with MBD3sc [5] and with MBD2sc [6] were 1200 ± 200 nM and 11 ± 1 nM, respectively.
